The record followed here is patent publication US20140087995A1 (published 2014).

One may read the IC50 as the concentration that inhibits the measured activity by half.

Numbered stars: 1 amine (or outer) side, 2 acyl side, 3 side chain; on linkers, the order of the positions; unused ones are H or OH. Bridge positions count the residues as written; N and C are the ends. Side chains are listed from the residue outwards. Ends that are not written are not given here. * marks the point of attachment. C20 diacid = O=C(O)CCCCCCCCCCCCCCCCCCC(=O)*; γGlu = O=C(O)[C@H](CCC(=O)[*:2])N[*:1]; AEEA = NCCOCCOCC(=O)O

For the test, the target named is T1, human amylin receptor (amylin 3(a) receptor: human calcitonin receptor with RAMP-3) (human, UniProt P30988 25-474; O60896 24-148).
T1 construct: whole, on cells; also called hAmylin-R; hAmylinR
T1 sequence (looked up) 1: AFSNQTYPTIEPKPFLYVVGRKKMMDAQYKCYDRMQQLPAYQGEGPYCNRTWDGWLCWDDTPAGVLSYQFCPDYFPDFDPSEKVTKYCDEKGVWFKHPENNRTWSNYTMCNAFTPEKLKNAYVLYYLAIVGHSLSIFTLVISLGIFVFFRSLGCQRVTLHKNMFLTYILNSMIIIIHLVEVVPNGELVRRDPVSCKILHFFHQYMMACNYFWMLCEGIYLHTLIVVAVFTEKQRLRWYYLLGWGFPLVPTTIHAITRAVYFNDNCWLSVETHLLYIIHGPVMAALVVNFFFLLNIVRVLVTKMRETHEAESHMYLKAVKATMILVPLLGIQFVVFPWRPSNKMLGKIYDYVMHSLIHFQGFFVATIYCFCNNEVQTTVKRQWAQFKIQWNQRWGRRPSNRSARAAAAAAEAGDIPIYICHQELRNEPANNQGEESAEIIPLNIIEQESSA
T1 sequence (looked up) 2: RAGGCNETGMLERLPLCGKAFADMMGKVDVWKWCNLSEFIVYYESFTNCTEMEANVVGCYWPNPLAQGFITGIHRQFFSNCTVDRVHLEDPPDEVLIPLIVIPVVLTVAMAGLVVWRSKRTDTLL
The experiment in a line: SPA displacement of 125I-rat amylin, hAmylin 3(a) receptor membranes. The gist of the method: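 One-site competition analysis of SPA counts yielded IC₅₀ as a measure of affinity. Membranes were at 35 ng/μL final; incubation was 120 min at 25° C, pH 7.4.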
Background: In a radioligand displacement assay an active substance lowers the binding of a labelled ligand.

B1: N^ε1-[2-[2-[2-[[(4S)-4-carboxy-4-(19-carboxynonadecanoylamino)butanoyl]amino]ethoxy]ethoxy]acetyl]-[Gly14,Arg17,Pro21,Pro27,Pro31]-h-amylin (peptide)
peptide: K([AEEA-γGlu-C20 diacid])CNTATCATQRLAGFLRHSSPNFGAIPSSTPVGSNTY-NH2
modifications: disulfide 2-7; N-terminus assumed
SMILES: CC[C@H](C)[C@H](NC(=O)[C@H](C)NC(=O)CNC(=O)[C@H](Cc1ccccc1)NC(=O)[C@H](CC(N)=O)NC(=O)[C@@H]1CCCN1C(=O)[C@H](CO)NC(=O)[C@H](CO)NC(=O)[C@H](Cc1c[nH]cn1)NC(=O)[C@H](CCCNC(=N)N)NC(=O)[C@H](CC(C)C)NC(=O)[C@H](Cc1ccccc1)NC(=O)CNC(=O)[C@H](C)NC(=O)[C@H](CC(C)C)NC(=O)[C@H](CCCNC(=N)N)NC(=O)[C@H](CCC(N)=O)NC(=O)[C@@H](NC(=O)[C@H](C)NC(=O)[C@@H]1CSSC[C@H](NC(=O)[C@@H](N)CCCCNC(=O)COCCOCCNC(=O)CC[C@H](NC(=O)CCCCCCCCCCCCCCCCCCC(=O)O)C(=O)O)C(=O)N[C@@H](CC(N)=O)C(=O)N[C@@H]([C@@H](C)O)C(=O)N[C@@H](C)C(=O)N[C@@H]([C@@H](C)O)C(=O)N1)[C@@H](C)O)C(=O)N1CCC[C@H]1C(=O)N[C@@H](CO)C(=O)N[C@@H](CO)C(=O)N[C@H](C(=O)N1CCC[C@H]1C(=O)N[C@H](C(=O)NCC(=O)N[C@@H](CO)C(=O)N[C@@H](CC(N)=O)C(=O)N[C@H](C(=O)N[C@@H](Cc1ccc(O)cc1)C(N)=O)[C@@H](C)O)C(C)C)[C@@H](C)O
notes: also called 71; compound 71
In the case of B1, the IC50 was determined as 0.048 nM.

B2: N^ε1-[2-[2-[2-[[(4S)-4-carboxy-4-(19-carboxynonadecanoylamino)butanoyl]amino]ethoxy]ethoxy]acetyl]-[His14,Arg17,Pro21,Pro27]-h-amylin (peptide)
peptide: K([AEEA-γGlu-C20 diacid])CNTATCATQRLAHFLRHSSPNFGAIPSSTNVGSNTY-NH2
modifications: disulfide 2-7; N-terminus assumed
SMILES: CC[C@H](C)[C@H](NC(=O)[C@H](C)NC(=O)CNC(=O)[C@H](Cc1ccccc1)NC(=O)[C@H](CC(N)=O)NC(=O)[C@@H]1CCCN1C(=O)[C@H](CO)NC(=O)[C@H](CO)NC(=O)[C@H](Cc1c[nH]cn1)NC(=O)[C@H](CCCNC(=N)N)NC(=O)[C@H](CC(C)C)NC(=O)[C@H](Cc1ccccc1)NC(=O)[C@H](Cc1c[nH]cn1)NC(=O)[C@H](C)NC(=O)[C@H](CC(C)C)NC(=O)[C@H](CCCNC(=N)N)NC(=O)[C@H](CCC(N)=O)NC(=O)[C@@H](NC(=O)[C@H](C)NC(=O)[C@@H]1CSSC[C@H](NC(=O)[C@@H](N)CCCCNC(=O)COCCOCCNC(=O)CC[C@H](NC(=O)CCCCCCCCCCCCCCCCCCC(=O)O)C(=O)O)C(=O)N[C@@H](CC(N)=O)C(=O)N[C@@H]([C@@H](C)O)C(=O)N[C@@H](C)C(=O)N[C@@H]([C@@H](C)O)C(=O)N1)[C@@H](C)O)C(=O)N1CCC[C@H]1C(=O)N[C@@H](CO)C(=O)N[C@@H](CO)C(=O)N[C@H](C(=O)N[C@@H](CC(N)=O)C(=O)N[C@H](C(=O)NCC(=O)N[C@@H](CO)C(=O)N[C@@H](CC(N)=O)C(=O)N[C@H](C(=O)N[C@@H](Cc1ccc(O)cc1)C(N)=O)[C@@H](C)O)C(C)C)[C@@H](C)O
notes: also called 69; compound 69
Take B2: the IC50 is 0.133 nM.

B3: N^ε1-[2-[2-[2-[[(4S)-4-carboxy-4-(19-carboxynonadecanoylamino)butanoyl]amino]ethoxy]ethoxy]acetyl]-[His14,Arg17,Pro21,Pro27,Arg34]-h-amylin (peptide)
peptide: K([AEEA-γGlu-C20 diacid])CNTATCATQRLAHFLRHSSPNFGAIPSSTNVGRNTY-NH2
modifications: disulfide 2-7; N-terminus assumed
SMILES: CC[C@H](C)[C@H](NC(=O)[C@H](C)NC(=O)CNC(=O)[C@H](Cc1ccccc1)NC(=O)[C@H](CC(N)=O)NC(=O)[C@@H]1CCCN1C(=O)[C@H](CO)NC(=O)[C@H](CO)NC(=O)[C@H](Cc1c[nH]cn1)NC(=O)[C@H](CCCNC(=N)N)NC(=O)[C@H](CC(C)C)NC(=O)[C@H](Cc1ccccc1)NC(=O)[C@H](Cc1c[nH]cn1)NC(=O)[C@H](C)NC(=O)[C@H](CC(C)C)NC(=O)[C@H](CCCNC(=N)N)NC(=O)[C@H](CCC(N)=O)NC(=O)[C@@H](NC(=O)[C@H](C)NC(=O)[C@@H]1CSSC[C@H](NC(=O)[C@@H](N)CCCCNC(=O)COCCOCCNC(=O)CC[C@H](NC(=O)CCCCCCCCCCCCCCCCCCC(=O)O)C(=O)O)C(=O)N[C@@H](CC(N)=O)C(=O)N[C@@H]([C@@H](C)O)C(=O)N[C@@H](C)C(=O)N[C@@H]([C@@H](C)O)C(=O)N1)[C@@H](C)O)C(=O)N1CCC[C@H]1C(=O)N[C@@H](CO)C(=O)N[C@@H](CO)C(=O)N[C@H](C(=O)N[C@@H](CC(N)=O)C(=O)N[C@H](C(=O)NCC(=O)N[C@@H](CCCNC(=N)N)C(=O)N[C@@H](CC(N)=O)C(=O)N[C@H](C(=O)N[C@@H](Cc1ccc(O)cc1)C(N)=O)[C@@H](C)O)C(C)C)[C@@H](C)O
notes: also called 84; compound 84
With B3, the IC50 came out at 0.743 nM.

B4: N^ε1-[2-[2-[2-[[(4S)-4-carboxy-4-(19-carboxynonadecanoylamino)butanoyl]amino]ethoxy]ethoxy]acetyl]-[His14,Arg17,Pro21,Pro27,Pro31]-h-amylin (peptide)
peptide: K([AEEA-γGlu-C20 diacid])CNTATCATQRLAHFLRHSSPNFGAIPSSTPVGSNTY-NH2
modifications: disulfide 2-7; N-terminus assumed
SMILES: CC[C@H](C)[C@H](NC(=O)[C@H](C)NC(=O)CNC(=O)[C@H](Cc1ccccc1)NC(=O)[C@H](CC(N)=O)NC(=O)[C@@H]1CCCN1C(=O)[C@H](CO)NC(=O)[C@H](CO)NC(=O)[C@H](Cc1c[nH]cn1)NC(=O)[C@H](CCCNC(=N)N)NC(=O)[C@H](CC(C)C)NC(=O)[C@H](Cc1ccccc1)NC(=O)[C@H](Cc1c[nH]cn1)NC(=O)[C@H](C)NC(=O)[C@H](CC(C)C)NC(=O)[C@H](CCCNC(=N)N)NC(=O)[C@H](CCC(N)=O)NC(=O)[C@@H](NC(=O)[C@H](C)NC(=O)[C@@H]1CSSC[C@H](NC(=O)[C@@H](N)CCCCNC(=O)COCCOCCNC(=O)CC[C@H](NC(=O)CCCCCCCCCCCCCCCCCCC(=O)O)C(=O)O)C(=O)N[C@@H](CC(N)=O)C(=O)N[C@@H]([C@@H](C)O)C(=O)N[C@@H](C)C(=O)N[C@@H]([C@@H](C)O)C(=O)N1)[C@@H](C)O)C(=O)N1CCC[C@H]1C(=O)N[C@@H](CO)C(=O)N[C@@H](CO)C(=O)N[C@H](C(=O)N1CCC[C@H]1C(=O)N[C@H](C(=O)NCC(=O)N[C@@H](CO)C(=O)N[C@@H](CC(N)=O)C(=O)N[C@H](C(=O)N[C@@H](Cc1ccc(O)cc1)C(N)=O)[C@@H](C)O)C(C)C)[C@@H](C)O
notes: also called 61; compound 61
With B4, the 50% inhibitory concentration (IC50) is 0.122 nM.

B5: N^ε1-[2-[2-[2-[[(4S)-4-carboxy-4-(19-carboxynonadecanoylamino)butanoyl]amino]ethoxy]ethoxy]acetyl]-[His14,Arg17,Pro21,Pro27,His34]-h-amylin (peptide)
peptide: K([AEEA-γGlu-C20 diacid])CNTATCATQRLAHFLRHSSPNFGAIPSSTNVGHNTY-NH2
modifications: disulfide 2-7; N-terminus assumed
SMILES: CC[C@H](C)[C@H](NC(=O)[C@H](C)NC(=O)CNC(=O)[C@H](Cc1ccccc1)NC(=O)[C@H](CC(N)=O)NC(=O)[C@@H]1CCCN1C(=O)[C@H](CO)NC(=O)[C@H](CO)NC(=O)[C@H](Cc1c[nH]cn1)NC(=O)[C@H](CCCNC(=N)N)NC(=O)[C@H](CC(C)C)NC(=O)[C@H](Cc1ccccc1)NC(=O)[C@H](Cc1c[nH]cn1)NC(=O)[C@H](C)NC(=O)[C@H](CC(C)C)NC(=O)[C@H](CCCNC(=N)N)NC(=O)[C@H](CCC(N)=O)NC(=O)[C@@H](NC(=O)[C@H](C)NC(=O)[C@@H]1CSSC[C@H](NC(=O)[C@@H](N)CCCCNC(=O)COCCOCCNC(=O)CC[C@H](NC(=O)CCCCCCCCCCCCCCCCCCC(=O)O)C(=O)O)C(=O)N[C@@H](CC(N)=O)C(=O)N[C@@H]([C@@H](C)O)C(=O)N[C@@H](C)C(=O)N[C@@H]([C@@H](C)O)C(=O)N1)[C@@H](C)O)C(=O)N1CCC[C@H]1C(=O)N[C@@H](CO)C(=O)N[C@@H](CO)C(=O)N[C@H](C(=O)N[C@@H](CC(N)=O)C(=O)N[C@H](C(=O)NCC(=O)N[C@@H](Cc1c[nH]cn1)C(=O)N[C@@H](CC(N)=O)C(=O)N[C@H](C(=O)N[C@@H](Cc1ccc(O)cc1)C(N)=O)[C@@H](C)O)C(C)C)[C@@H](C)O
notes: also called 80; compound 80
In the case of B5, the IC50 was 0.29 nM.

B6: N^ε1-[2-[2-[2-[[(4S)-4-carboxy-4-(19-carboxynonadecanoylamino)butanoyl]amino]ethoxy]ethoxy]acetyl]-[His14,Arg17,Pro21,Pro27,Pro34]-h-amylin (peptide)
peptide: K([AEEA-γGlu-C20 diacid])CNTATCATQRLAHFLRHSSPNFGAIPSSTNVGPNTY-NH2
modifications: disulfide 2-7; N-terminus assumed
SMILES: CC[C@H](C)[C@H](NC(=O)[C@H](C)NC(=O)CNC(=O)[C@H](Cc1ccccc1)NC(=O)[C@H](CC(N)=O)NC(=O)[C@@H]1CCCN1C(=O)[C@H](CO)NC(=O)[C@H](CO)NC(=O)[C@H](Cc1c[nH]cn1)NC(=O)[C@H](CCCNC(=N)N)NC(=O)[C@H](CC(C)C)NC(=O)[C@H](Cc1ccccc1)NC(=O)[C@H](Cc1c[nH]cn1)NC(=O)[C@H](C)NC(=O)[C@H](CC(C)C)NC(=O)[C@H](CCCNC(=N)N)NC(=O)[C@H](CCC(N)=O)NC(=O)[C@@H](NC(=O)[C@H](C)NC(=O)[C@@H]1CSSC[C@H](NC(=O)[C@@H](N)CCCCNC(=O)COCCOCCNC(=O)CC[C@H](NC(=O)CCCCCCCCCCCCCCCCCCC(=O)O)C(=O)O)C(=O)N[C@@H](CC(N)=O)C(=O)N[C@@H]([C@@H](C)O)C(=O)N[C@@H](C)C(=O)N[C@@H]([C@@H](C)O)C(=O)N1)[C@@H](C)O)C(=O)N1CCC[C@H]1C(=O)N[C@@H](CO)C(=O)N[C@@H](CO)C(=O)N[C@H](C(=O)N[C@@H](CC(N)=O)C(=O)N[C@H](C(=O)NCC(=O)N1CCC[C@H]1C(=O)N[C@@H](CC(N)=O)C(=O)N[C@H](C(=O)N[C@@H](Cc1ccc(O)cc1)C(N)=O)[C@@H](C)O)C(C)C)[C@@H](C)O
notes: also called 68; compound 68
Turning to B6, the IC50 turned out to be 0.088 nM.
